Measured values as given in the supplement of paper PMC12042874.
± gives the uncertainty stated by the source.

Assay: amyloid nucleation score (Sup35N fusion, yeast selection) (log enrichment); library NNK3; higher = more nucleation; inactive = no reads after selection
In short: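 Psi-negative yeast expressed Sup35N fused to peptides of 20 random codons. They were induced 24 hours with 100 μM copper sulfate, grown 7 days at 30°C without adenine and uracil, and their plasmid inserts from input and output were Illumina-sequenced. The nucleation score is the DiMSum log enrichment of output over input reads, centred on the mode score of non-aggregating sequences. Sequences with under 100 input reads were excluded.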

Substance	amyloid nucleation score
GKCLLYRFILILLHP	-0.155 ± 0.93
EKQKSLFCVLMVGLFYVNV	inactive
LVYNQVVHRFLTLVFLSYMS	inactive
TSKVGLACKTIYVERSFWYF	inactive
LTHPCLMPFMLVVTRLYMAA	-1.03 ± 1.8
LRCVGGSGSEGLVLSRMVTG	inactive
FLLGPSLTPNSMG	inactive
SLGRFDLMCHTKYLSTTVVF	inactive
SMKLLT	-0.254 ± 0.7
GCTDIHASEH	inactive
DSYIVYDKQDPS	inactive
CCCRIEYHGVHGATSHSQTV	inactive
QARKDDDKAQNKCSR	inactive
EDGCRNVRLFTMVRSLMYK	inactive
VIRVKSSCLVLLEHKLLACG	inactive
PAYLHYSIFWQNVFSNVLIM	1.1 ± 0.14
IDVYRFRKGA	inactive
HDARGLIIFARSHSAESRVR	inactive
DRQRWSRLCAGQSLYNCGKC	inactive
FWNSFHFVNNYWHVY	inactive
GAWVTATWAFDAVLFCPGKM	inactive
FLVYLRR	1.17 ± 0.11
ALTHHVVYLMAGKNVTTS	inactive
KSQMCNMMRRFYLRCIDLRL	inactive
TIFGCRSSQCSMFVLVFDFY	1.51 ± 0.12
AFYFRT	inactive
ELYMQMCYRRIGCV	inactive

Substance	amyloid nucleation score
ARLVYFFLYGLSCRMHCLCW	inactive
RMRKSFLFVWIDFILKR	inactive
YVILGIRGKGWVFYQRAP	inactive
YWMMY	inactive
ALRARERWLRLPALAWKVMY	inactive
QTGLVMWQLTFTYPLHVWNM	inactive
VMGMDIIRIPS	inactive
GSKAHNDIDRGGSWMGWNIA	inactive
SGDNMPAWVDHMSCHKRWSG	-0.474 ± 1.1
RCTVSTSGSGGFCPVPRSGM	inactive
VEKAIAFGNF	inactive
NTFVDGKSRYYSYLRIVQIL	inactive
RTYMVII	inactive
FPIWLLDCKEDCVLSDVAAS	inactive
FGFYSCTLGG	inactive
SHQFYMSARTNW	0.701 ± 0.24
SAYSVHLSSVHFELVVET	inactive
LDMPCILLYLRSNWGRFG	inactive
SFFVT	inactive
FTSLLAVYSIPLQWGATT	inactive
FCDAKYLRLRSCALISMPSV	inactive
YLVTIILI	1.32 ± 0.16
VGLISGVCDDGSGSMSSRLW	inactive
IWIMLHSCELWYADKADLDG	inactive
FAYWWRTVTPVCSGLVRYCW	inactive
RSSSASR	inactive
SIIGASLLNYF	inactive

Substance	amyloid nucleation score
GVRLNEIGRIMIRQACGIWE	inactive
RVCCVGYLSNLLTMKGTGID	1.81 ± 0.059
CGRLHDVG	inactive
NGSNFFDCSQFLCSFGGDVV	2.45 ± 0.072
IDVYLGLYMRRVSVLETHCS	2.02 ± 0.087
LFHIQNESGVSYIKWFSLSI	0.553 ± 0.27
GRPIKWKKRSAVK	inactive
GLFIGYDVQ	inactive
SLFLLFLWYGINDTYLVYFV	inactive
NYYYMYGKCSI	2.28 ± 0.082
EGNCELCRLWYNWGRVAGNK	0.457 ± 0.2
KLLSRYSTACMLRINLIRRY	inactive
YGVYISIFILCWNGGNNDDC	inactive
DLFKTVPYRWGFRYHIGIYM	inactive
PMVKPSNLCYSSHCSMGTRG	inactive
FGMKTYRLQIGYNITVCHSI	-0.603 ± 0.58
GTMIRQLERELSHMREVTYI	inactive
SRSVSESDVMGTVGIYAEFS	inactive
LKGVYSERPNRDAG	inactive
GPILL	inactive
YTRLRNVDTRAFMDSPDILW	inactive
VMYGIL	inactive
SWAVRMAGEYFRNSDMMWCA	inactive
YFTYGRQCMVVLDCLVDRRG	inactive
SVFPSLFNACSDLNSVHKVV	inactive
FLTFRPSLSTRHLFLMESHT	inactive
